Targets include DLG2_3, Q15700; NHERF2_2, Q15599; IL16_3, Q14005; GRIP2_5, Q9C0E4; MAST1, Q9Y2H9; PARD3_3, Q8TEW0; DLG5_1, Q8TDM6; GRID2IP_2, A4D2P6; Inadl_4, Q8NI35; IL16_1, Q14005.
Holding throughout (assay): holdup assay
Holding throughout (set-up): key: below the threshold = too weak to quantify, mostly under pKd 3.1 to 4
Common to all, as to conditions: plain residues with an end cap or a label only (N-terminal biotin on a linker: ado-ado)

The target of the next assay is T1, APBA1_2, Q02410.
T1 sequence (Q02410 742-832, limits assumed, looked up): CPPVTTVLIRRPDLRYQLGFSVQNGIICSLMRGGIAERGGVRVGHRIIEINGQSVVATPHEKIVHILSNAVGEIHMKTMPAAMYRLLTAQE

The target of the next assay is T2, ARHGEF11, O15085.
T2 sequence (O15085 42-136, limits assumed, looked up): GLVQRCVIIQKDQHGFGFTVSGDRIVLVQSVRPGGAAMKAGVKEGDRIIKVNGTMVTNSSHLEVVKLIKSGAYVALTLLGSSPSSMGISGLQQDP

Another assay has as its target T3, SNTG2, Q9NY99.
T3 sequence (Q9NY99 68-166, limits assumed, looked up): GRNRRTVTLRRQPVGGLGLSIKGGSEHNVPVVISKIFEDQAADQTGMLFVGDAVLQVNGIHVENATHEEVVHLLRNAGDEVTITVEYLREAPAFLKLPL

The target of another assay is T4, DFNB31_1, Q9P202.
T4 sequence (Q9P202 135-233, limits assumed, looked up): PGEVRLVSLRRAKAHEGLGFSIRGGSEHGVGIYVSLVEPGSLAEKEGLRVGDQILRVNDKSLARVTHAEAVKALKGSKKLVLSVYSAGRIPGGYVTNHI

The next assay has as its target T5, PDZD7_3, Q9H5P4.
T5 sequence (Q9H5P4 857-944, limits assumed, looked up): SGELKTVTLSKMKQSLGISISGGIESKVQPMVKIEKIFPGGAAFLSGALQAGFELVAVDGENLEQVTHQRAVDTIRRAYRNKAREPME

Another assay deals with T6, MPP6, Q9NZW5.
T6 sequence (Q9NZW5 125-219, limits assumed, looked up): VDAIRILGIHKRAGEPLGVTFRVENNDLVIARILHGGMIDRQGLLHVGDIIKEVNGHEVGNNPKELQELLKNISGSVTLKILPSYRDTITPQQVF

In another assay the target is T7, DLG3_3, Q92796.
T7 sequence (Q92796 374-475, limits assumed, looked up): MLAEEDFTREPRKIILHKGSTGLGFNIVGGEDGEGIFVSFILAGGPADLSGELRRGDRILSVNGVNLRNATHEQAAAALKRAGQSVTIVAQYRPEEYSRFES

A further assay addresses T8, GRIP1_4, Q9Y3R0.
T8 sequence (Q9Y3R0 467-571, limits assumed, looked up): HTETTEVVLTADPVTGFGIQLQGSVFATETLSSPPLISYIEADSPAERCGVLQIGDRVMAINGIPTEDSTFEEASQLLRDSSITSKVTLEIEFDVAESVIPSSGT

For another assay, the target named is T9, HTRA4, P83105.
T9 sequence (P83105 378-476, limits assumed, looked up): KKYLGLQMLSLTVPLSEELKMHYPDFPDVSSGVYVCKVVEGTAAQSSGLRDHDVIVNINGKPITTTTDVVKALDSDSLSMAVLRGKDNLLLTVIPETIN

For a further assay, the target named is T10, GRIP1_3, Q9Y3R0.
T10 sequence (Q9Y3R0 247-346, limits assumed, looked up): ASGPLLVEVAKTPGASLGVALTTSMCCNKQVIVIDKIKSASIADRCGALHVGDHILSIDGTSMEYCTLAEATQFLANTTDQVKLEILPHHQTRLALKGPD

Another assay addresses T11, MPP7, Q5T2T1.
T11 sequence (Q5T2T1 134-230, limits assumed, looked up): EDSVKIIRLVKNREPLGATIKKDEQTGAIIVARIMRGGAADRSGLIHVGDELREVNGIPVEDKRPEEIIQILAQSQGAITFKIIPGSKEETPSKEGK

Another assay deals with T12, GRIP1_2, Q9Y3R0.
T12 sequence (Q9Y3R0 145-248, limits assumed, looked up): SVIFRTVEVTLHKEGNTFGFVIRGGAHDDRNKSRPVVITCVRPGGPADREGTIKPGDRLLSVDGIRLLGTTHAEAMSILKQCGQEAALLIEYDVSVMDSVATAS

In another assay the target is T13, APBA2_2, Q99767.
T13 sequence (Q99767 654-744, limits assumed, looked up): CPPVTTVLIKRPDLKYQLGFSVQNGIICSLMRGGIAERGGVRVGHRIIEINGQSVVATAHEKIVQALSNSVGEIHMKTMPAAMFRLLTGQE

Another assay concerns the target T14, APBA1_1, Q02410.
T14 sequence (Q02410 651-752, limits assumed, looked up): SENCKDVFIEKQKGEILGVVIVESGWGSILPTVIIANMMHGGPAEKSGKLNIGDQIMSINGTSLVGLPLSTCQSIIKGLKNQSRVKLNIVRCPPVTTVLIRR

Chain of Inadl_4, Q8NI35 (Q8NI35 547-651): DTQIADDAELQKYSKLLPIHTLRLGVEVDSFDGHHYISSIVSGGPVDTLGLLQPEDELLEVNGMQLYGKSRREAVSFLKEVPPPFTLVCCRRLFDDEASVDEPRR
Chain of PARD3_3, Q8TEW0 (Q8TEW0 582-685): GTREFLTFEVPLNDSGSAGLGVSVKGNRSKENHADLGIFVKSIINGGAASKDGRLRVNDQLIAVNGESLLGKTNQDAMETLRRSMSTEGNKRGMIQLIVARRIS
Chain of IL16_3, Q14005 (Q14005 1107-1207): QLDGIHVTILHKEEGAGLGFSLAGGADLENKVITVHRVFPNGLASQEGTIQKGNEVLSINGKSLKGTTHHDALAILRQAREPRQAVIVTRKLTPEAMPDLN
Chain of GRID2IP_2, A4D2P6 (A4D2P6 272-370): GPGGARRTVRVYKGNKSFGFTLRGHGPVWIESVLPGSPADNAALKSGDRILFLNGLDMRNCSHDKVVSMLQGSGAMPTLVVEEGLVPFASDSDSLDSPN
Chain of GRIP2_5, Q9C0E4 (Q9C0E4 544-642): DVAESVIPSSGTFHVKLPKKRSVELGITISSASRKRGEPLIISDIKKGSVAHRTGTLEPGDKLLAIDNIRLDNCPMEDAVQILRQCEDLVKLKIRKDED
Chain of NHERF2_2, Q15599 (Q15599 142-238): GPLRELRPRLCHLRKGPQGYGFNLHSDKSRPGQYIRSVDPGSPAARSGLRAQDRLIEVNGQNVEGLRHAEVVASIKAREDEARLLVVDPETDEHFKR
Chain of IL16_1, Q14005 (Q14005 210-306): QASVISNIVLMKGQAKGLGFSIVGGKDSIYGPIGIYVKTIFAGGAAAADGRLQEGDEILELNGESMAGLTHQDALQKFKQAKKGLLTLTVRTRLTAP
Chain of MAST1, Q9Y2H9 (Q9Y2H9 962-1065): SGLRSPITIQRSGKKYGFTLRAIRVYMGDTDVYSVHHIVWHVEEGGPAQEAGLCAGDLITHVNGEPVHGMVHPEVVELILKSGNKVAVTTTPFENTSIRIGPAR
Chain of DLG5_1, Q8TDM6 (Q8TDM6 617-713): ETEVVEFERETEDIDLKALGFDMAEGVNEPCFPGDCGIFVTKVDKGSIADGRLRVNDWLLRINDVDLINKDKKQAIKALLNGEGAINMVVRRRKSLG

As a reminder, the pKd is −log10 of the Kd, conventionally taken in molar units. In the case of QLSFNTDTLC [ABCA2, Q9BZC7], the negative logarithm of the Kd (pKd) with DLG2_3, Q15700 was 3.73; with NHERF2_2, Q15599, 3.59; in the assay with IL16_3, Q14005 it was “below the threshold”; in the assay with APBA1_2, Q02410, “below the threshold”; in the assay with GRIP2_5, Q9C0E4 it was “below the threshold”; with ARHGEF11, O15085, “below the threshold”. For the same molecule, the pKd entry was “below the threshold” in the assay with SNTG2, Q9NY99; “below the threshold” with DFNB31_1, Q9P202; 4.16 with MAST1, Q9Y2H9; “below the threshold” with PDZD7_3, Q9H5P4; “below the threshold” with PARD3_3, Q8TEW0; “below the threshold” with DLG5_1, Q8TDM6. In addition, the pKd entry with MPP6, Q9NZW5 is “below the threshold”; in the assay with DLG3_3, Q92796, “below the threshold”; in the assay with GRID2IP_2, A4D2P6, “below the threshold”; with Inadl_4, Q8NI35, “below the threshold”; with GRIP1_4, Q9Y3R0 it was “below the threshold”; in the assay with HTRA4, P83105 it was “below the threshold”. Further, the pKd entry was “below the threshold” in the assay with GRIP1_3, Q9Y3R0; “below the threshold” with MPP7, Q5T2T1; “below the threshold” with GRIP1_2, Q9Y3R0; 3.58 in the assay with IL16_1, Q14005; “below the threshold” with APBA2_2, Q99767; “below the threshold” with APBA1_1, Q02410.

EDLEDEWEVI [TECPR2, O15040]: the pKd in the assay with DLG2_3, Q15700 is 3.77; with NHERF2_2, Q15599 it was “below the threshold”; with IL16_3, Q14005 it was “below the threshold”; in the assay with APBA1_2, Q02410, “below the threshold”; with GRIP2_5, Q9C0E4 it was “below the threshold”; in the assay with ARHGEF11, O15085, “below the threshold”. Moreover, the negative-log Kd (pKd) entry with SNTG2, Q9NY99 was “below the threshold”; with DFNB31_1, Q9P202, “below the threshold”; in the assay with MAST1, Q9Y2H9, 3.68; with PDZD7_3, Q9H5P4, 3.92; with PARD3_3, Q8TEW0, 5.6; with DLG5_1, Q8TDM6 it was “below the threshold”. In addition, the negative logarithm of the Kd (pKd) entry with MPP6, Q9NZW5 is reported as “below the threshold”; with DLG3_3, Q92796, “below the threshold”; in the assay with GRID2IP_2, A4D2P6, “below the threshold”; in the assay with Inadl_4, Q8NI35, “below the threshold”; with GRIP1_4, Q9Y3R0, “below the threshold”; in the assay with HTRA4, P83105, “below the threshold”. Also, the pKd entry was “below the threshold” with GRIP1_3, Q9Y3R0; “below the threshold” with MPP7, Q5T2T1; “below the threshold” with GRIP1_2, Q9Y3R0; “below the threshold” with IL16_1, Q14005; “below the threshold” in the assay with APBA2_2, Q99767; “below the threshold” in the assay with APBA1_1, Q02410.

EKCGKEFSEF [PRKACA, P17612]: the pKd in the assay with DLG2_3, Q15700 was 3.74; with NHERF2_2, Q15599 it was 4.18; with IL16_3, Q14005 it was “below the threshold”; with APBA1_2, Q02410 it was “below the threshold”; with GRIP2_5, Q9C0E4, “below the threshold”; with ARHGEF11, O15085 it was “below the threshold”. Besides, the negative logarithm of the Kd (pKd) result with SNTG2, Q9NY99 was “below the threshold”; with DFNB31_1, Q9P202 it was “below the threshold”; with MAST1, Q9Y2H9, 4.21; in the assay with PDZD7_3, Q9H5P4, “below the threshold”; with PARD3_3, Q8TEW0, “below the threshold”; with DLG5_1, Q8TDM6, “below the threshold”. Moreover, the pKd entry is reported as “below the threshold” with MPP6, Q9NZW5; “below the threshold” in the assay with DLG3_3, Q92796; “below the threshold” in the assay with GRID2IP_2, A4D2P6; “below the threshold” with Inadl_4, Q8NI35; “below the threshold” with GRIP1_4, Q9Y3R0; “below the threshold” in the assay with HTRA4, P83105. The pKd result in the assay with GRIP1_3, Q9Y3R0 is “below the threshold”; with MPP7, Q5T2T1, “below the threshold”; with GRIP1_2, Q9Y3R0, “below the threshold”; in the assay with IL16_1, Q14005 it was “below the threshold”; with APBA2_2, Q99767, “below the threshold”; with APBA1_1, Q02410, “below the threshold”.

These data come from publication PMC9482650, “Quantitative fragmentomics allow affinity mapping of interactomes” (Nature Communications, 2022).
